Source: patent publication US20170044238A1 (NATIONAL RESEARCH COUNCIL OF CANADA, published 2017)
Residue numbers refer to the chain shown, from its start.

T1: human lysozyme (human, UniProt P61626 19-148)
T1 construct: Bought; passed through Superdex 75 before SPR
T1 sequence (looked up): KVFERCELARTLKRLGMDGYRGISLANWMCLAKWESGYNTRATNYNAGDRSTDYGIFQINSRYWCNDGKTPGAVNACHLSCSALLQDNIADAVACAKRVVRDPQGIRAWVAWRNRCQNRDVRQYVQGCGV

B1: HVHAm427 (antibody, V domains shown)
VH: QVQLVESGGGLIKPGGSLRLSCAASGVTLSPECMAWVRQAPGKGLEWVSAISSSGGSTYYADSVKGRFTISRDNSKNTVYLQMNSLRAEDTAVYYCVSCEGENAFWGQGTMVTVSS
notes: Human VH single-domain antibody (wild-type), tested alone; tag not specified
B2: HVHAm427S (antibody, V domains shown)
VH: B1 VH with S49C, I70C
notes: Cys49/Cys69 (Kabat) mutant of HVHAm427; VH single-domain antibody; tag not specified
B3: HVHM81S (antibody, V domains shown)
VH: EVQLVQSGGGLVQPGRSLRLSCAASGFTFDDYAMHWVRQAPGKGLEWVCGISGSGASTYYADSVKGRFTCSRDNSKNTLYLQMNSLRAGDTALYYCARQSITGPTGAFDVWGQGTMVTVSS
notes: Cys49/Cys69 (Kabat) mutant of HVHM81; VH single-domain antibody; tag not specified
B4: HVHB82S (antibody, V domains shown)
VH: QVQLQESGGGLVQPGGSLRLSCAASGFTFSSYAMSWVRQAPGKGLEWVCAISGSGGSTYYADSVKGRFTCSRDNSKNTLYLQMNSLRAEDTAVYYCGTDMEVWGKGTTVTVSS
notes: Cys49/Cys69 (Kabat) mutant of HVHB82; VH single-domain antibody; tag not specified
B5: HVLHLRN (antibody, V domains shown)
VL: DIQMTQSPSSLSASVGDRVTITCKASQGIRNRLYWYQQKPGKAPKLLCFPASILDSGVPSRFSCSGSGTDFTLTISNLQPEDFATYYCAQQPGLPNSRTFGHGTKVTVL
notes: Anti-human lysozyme VL single-domain antibody from the HVLP324S library (Cys48/Cys64); not shown: C-terminal His6 tag
B6: HVHP421S (antibody, V domains shown)
VH: QLQLQESGGGVVQPGRSLRLSCAASGFTFSSYAMSWVRQAPGKGLEWVCAISGSGGSTYYADSVKGRFTCSRDNSKNTLYLQMNSLRAEDTAVYYCAKDGKGGSSGYDHPDYWGQGTLVTVSS
notes: Cys49/Cys69 (Kabat) mutant of HVHP421; VH single-domain antibody; tag not specified
B7: HVHP414S (antibody, V domains shown)
VH: DVQLVQSGGGLVKPGGSLRLSCTASGFPFSNAWMSWVRQAPGKGLEWVCRITSKTDGGTTDYVAPVKGRFTCSRDDSKNTLYLQMNSLKTEDTAVYYCTTDQANAFDIWGQGTMVTVSS
notes: Cys49/Cys69 (Kabat) mutant of HVHP414; VH single-domain antibody; tag not specified
B8: HVHP429S (antibody, V domains shown)
VH: EVQLVESGGTLVQPGGSLRLSCAASGFTFINYAMSWVRQAPDKGLDWVCTISNNGGATYYADSVKGRFTCSRDNSNNTLYLQMNSLRPDDTAVYYCAKGPINTGRYGDWGQGTLVTVSS
notes: Cys49/Cys69 (Kabat) mutant of HVHP429; VH single-domain antibody; tag not specified
B9: HVHP430S (antibody, V domains shown)
VH: QVQLVESGGGLIKPGGSLRLSCAASGFTFSNYAMSWVRQAPGKGLEWVCAISSSGGSTYYADSVKGRFTCSRDNSKNTVYLQMNSLRAEDTAVYYCVREEYRCSGTSCPGAFDIWGQGTMVTVSS
notes: Cys49/Cys69 (Kabat) mutant of HVHP430; VH single-domain antibody; tag not specified
B10: HVLHLNN (antibody, V domains shown)
VL: DIQMTQSPSSLSASVGDRVTITCSASQSINNRLYWYQQKPGKAPKLLCFPASFLFSGVPSRFSCSGSGTDFTLTISNLQPEDFATYYCQQSYSTPRTFGHGTKVTVL
notes: as for B5
B11: HVLHLDS (antibody, V domains shown)
VL: B10 VL with S24T, A25V, S28G, N30D, N31S, F53L, F55E
notes: as for B5
B12: HVLHLNE (antibody, V domains shown)
VL: B10 VL with S24D, N31E, F53I, F55T, Q89R, S91P, Y92R, T94G, R96S
notes: as for B5
B13: HVHM41S (antibody, V domains shown)
VH: QVQLVQSGGGLVQPGRSLRLSCAASGFAFSSYAMSWVRQAPGKGLEWVCAISGGGDHTYYADSVKGRFTCSRDNSKNTLYLQMNSLRAEDTAVYYCAKEGMVRGVSSAPFDYWGQGTLVTVSS
notes: Cys49/Cys69 (Kabat) mutant of HVHM41; VH single-domain antibody; tag not specified
B14: HVHP426S (antibody, V domains shown)
VH: QVQLVQSGGGVVQPGRSLRLSCAASGFIVDGYAMHWVRQAPGQGLEWVCVTNNGGSTSYADSVKGRFTCSRDNSKNTVYLQMNSLRAEDTAVYYCARQSITGPTGAFDIWGQGTMVTVSS
notes: Cys49/Cys69 (Kabat) mutant of HVHP426; VH single-domain antibody; tag not specified
B15: HVHP428S (antibody, V domains shown)
VH: QLQLQESGGGLVQPGGSLRLSCAASGFTFSSYAMSWFRQAPGKGLEWVCFIRSKAYGGTTEYAASVKGRFTCSRDDSKSIAYLQMNSLRAEDTAMYYCARRAKDGYNSPEDYWGQGTLVTVSS
notes: Cys49/Cys69 (Kabat) mutant of HVHP428; VH single-domain antibody; tag not specified
B16: HVLHLYS (antibody, V domains shown)
V domain: DIQMTQSPSSLSASVGDRVTITCQASQSIYSKLYWYQQKPGKAPKLLCFPASLLWSGVPSRFSCSGSGTDFTLTISNLQPEDFATYYCLQNAADPHRTFGHGTKVRL
notes: as for B5
B17: HVHP413S (antibody, V domains shown)
VH: QVQLVQSGGGLVKPGGSLRLSCAASGFTFSDYYMSWVRQAPGKGLEWVCFIYSGGSTYYADSVKGRFTCSRDNSKNTLYLQMNSLRAEDTAVYYCARESRVGGGAFDIWGQGTMVTVSS
notes: Cys49/Cys69 (Kabat) mutant of HVHP413; VH single-domain antibody; tag not specified
B18: HVHP419S (antibody, V domains shown)
VH: QLQLQESGGGLVQPGGSLRLSCAASGFTFSSYAMSWVRQAPGKGLEWVCAISGSGGSTYYADSVKGRFTCSRDNSKNSLYLQMNSLGAEDTAVYYCARSWSGSSYGGDLDSWGQGTLVTVSS
notes: Cys49/Cys69 (Kabat) mutant of HVHP419; VH single-domain antibody; tag not specified
B19: HVHAm431 (antibody, V domains shown)
VH: QVQLVESGGGLIKPGGSLRLSCAASGYTVSSECMGWVRQAPGKGLEWVSAISSSGGSTYYADSVKGRFTISRDNSKNTVYLQMNSLRAEDTAVYYCVRDSKNCHDKDCTRPYCSWGQGTMVTVSS
notes: as for B1
B20: HVHAm431S (antibody, V domains shown)
VH: B19 VH with S49C, G55S, I70C
notes: Cys49/Cys69 (Kabat) mutant of HVHAm431; VH single-domain antibody; tag not specified
B21: HVHPC235 (antibody, V domains shown)
VH: QVQLVESGGGLIKPGGSLRLSCAASGFSVISESMTWVRQAPGKGLEWVSAISSSGGSTYYADSVKGRFTISRDNSKNTVHLQMNSLRADDTAVYYCAAKKIDGARYDYWGQGTMVTVSS
notes: Human VH single-domain antibody (wild-type), tested alone; tag not specified; also called HVHAmC235; HVHC235
B22: HVHPC235S (antibody, V domains shown)
VH: B21 VH with S49C, I70C, D89E
notes: Cys49/Cys69 (Kabat) mutant of HVHPC235; VH single-domain antibody; tag not specified; also called HVHAmC235S; HVHP235S
B23: HVHP420S (antibody, V domains shown)
VH: QVQLVESGGGLVKPGGSLRLSCAASGFTFSNAWMTWVRQAPGKGLEWVCRIKTKTDGGTTDYAAPVKGRFTCSRDDSKNTLYLQMNSLKTEDTAVYYCTTDRDHSSGSWGQGTLVTVSS
notes: Cys49/Cys69 (Kabat) mutant of HVHP420; VH single-domain antibody; tag not specified
B24: HVHAm302 (antibody, V domains shown)
VH: QVQLVESGGGLIKPGGSLRLSCAASGDTVSDESMTWVRQAPGKGLEWVSAISSSGGSTYYADSVKGRFTISRDNSKNTVYLQMNSLRAEDTAVYYCVTDNRSCQTSLCTSTTRSWGQGTMVTVSS
notes: Human VH single-domain antibody (wild-type), tested alone; monomer peak used for SPR; tag not specified
B25: HVHAm302S (antibody, V domains shown)
VH: B24 VH with S49C, I70C
notes: Cys49/Cys69 (Kabat) mutant of HVHAm302; VH single-domain antibody; tag not specified
B26: HVLHLQI (antibody, V domains shown)
VL: DIQMTQSPSSLSASVGDRVTITCRASQSIQIMLDWYQQKPGKAPKLLCFGASFLISGVPSRFSCSGSGTDFTLTISNLQPEDFATYYCRQTWTPPAPTFGHGTKVTVL
notes: as for B5
B27: HVLHLAQ (antibody, V domains shown)
VL: DIQMTQSPSSLSASVGDRVTITCGASQSIAQRLYWYQQKPGKAPKLLCFPASLLHSGVPSRFSCSGSGTDFTLTISNLQPEDFATYYCAQRASPPRPTFGHGTKVTVL
notes: as for B5
B28: HVLHLEM (antibody, V domains shown)
VL: DIQMTQSPSSLSASVGDRVTITCQASQGIEMFLQWYQQKPGKAPKLLCFAASTLQSGVPSRFSCSGSGTDFTLTISNLQPEDFATYYCVQPGVAPPPGTFGHGTKVTVL
notes: as for B5

Columns and labels:
protein A [1] = molecular target: T2, protein A (UniProt P38507 37-477); assay: SPR (Biacore 3000), VH over immobilized protein A
T2 construct: Bought (Pierce); immobilized on CM5 chip by amine coupling; also called recombinant protein A
Method: Immobilizations were carried out at 50 μg/mL in 10 mM acetate buffer, pH 4.5, using the amine coupling kit supplied by the manufacturer (GE Healthcare). All measurements were carried out at 25° C. in HBS-EP buffer at a flow rate of 50 μL/min. Surfaces were regenerated by washing with the running buffer.

protein A [2] = molecular target: T2, protein A; assay: SPR, KD of the mutant against KD of the wild-type VH on protein A
human lysozyme = molecular target: T1, human lysozyme; assay: SPR (Biacore 3000), human lysozyme over immobilized VL
Method: The affinities (KDs) of the anti-human lysozyme VLs to their antigen, human lysozyme, was also determined. The binding of human lysozyme to immobilized anti-human lysozyme VL binders was determined by surface plasmon resonance (SPR) using BIACORE 3000 (GE Healthcare). […] Immobilizations were carried out at concentrations of 10 μg/mL in 10 mM acetate at pH 4.5 using the amine coupling kit supplied by the manufacturer. Human lysozyme was passed through a Superdex 75 column (GE Healthcare) in HBS-EP buffer (10 mM HEPES, pH 7.4, 150 mM NaCl, 3 mM EDTA and 0.005% P20 surfactant) with flow rate of 0.5 mL/min to eliminate any possible aggregates prior to Biacore analysis. For the binding studies, analyses were carried out at 25° C. in 10 mM HEPES, pH 7.4 containing 150 mM NaCl, 3 mM EDTA and 0.005% surfactant P20. The flow rates used were 20 μL/min. For regeneration the surfaces were washed for 15 min with the running buffer. Data were analyzed with BIAevaluation 4.1 software. From the SPR profiles (FIG. 15), it can be seen that the anti-human lysozyme VLs indeed bind to their target antigen, lysozyme, confirming the binding results obtained by phage ELISA.

protein A [3] = molecular target: T2, protein A; assay: SPR (Biacore 3000), VH over immobilized protein A; value in parentheses obtained with higher concentration of monomer (footnote d)
Method: For mutant VHs (HVHP44S, HVHB82S, HVHP421S, HVHP419S, HVHP430S, HVHP429S, HVHM81S, HVHP428S, HVHP420S, HVHM41S, HVHP423S, HVHP413S, HVHP426S, and HVHP414S), approximately 1,170 RUs and 1,240 RUs of recombinant protein A and ovalbumin (reference protein), respectively, were immobilized on research grade sensor chip CMS. Immobilizations were carried out at 50 μg/mL in 10 mM acetate buffer (pH 4.5 for both protein A and ovalbumin) using the amine coupling kit supplied by the manufacturer. All measurements were carried out at 25° C. in HBS-EP buffer at a flow rate of 20 μL/min or 40 μL/min for HVHB82S, HVHP421S, HVHP429S, HVHM41S, HVHM81S, HVHP423S, HVHP413S, HVHP426S, and HVHP414S or HVHP44S, HVHP419S, HVHP430S, HVHP428S, and HVHP420S, respectively. The protein A binding property of the wild-type counterparts were determined previously (To et al 2005).

Row | Binder | Kd (protein A [1]) [nM] | other results
1 | B1 | 1600 | 
2 | B2 | 4000 | 
3 | B3 | 2100 | fold reduction in protein A binding (increase in KD) against wild-type HVHM81 (protein A [2]): 1.6 fold
4 | B4 | 1200 | 
5 | B5 |  | Kd (human lysozyme): 50 nM
6 | B6 | 2800 | 
7 | B7 | 1800 | 
8 | B8 | 5500 | Kd (protein A [3]): 3400 nM
9 | B9 | 7700 | 
10 | B10 |  | Kd (human lysozyme): 200 nM
11 | B11 |  | Kd (human lysozyme): 6100 nM
12 | B12 |  | Kd (human lysozyme): 60 nM
13 | B13 | 1500 | Kd (protein A [3]): 1800 nM
14 | B14 | 3400 | 
15 | B15 | 1600 | 
16 | B16 |  | Kd (human lysozyme): 6400 nM
17 | B17 | 1500 | 
18 | B18 | 4800 | Kd (protein A [3]): 3200 nM
19 | B19 | 4000 | 
20 | B20 | 8000 | 
21 | B21 | 300 | 
22 | B22 | 3000 | fold reduction in protein A binding (increase in KD) against wild-type HVHPC235 (protein A [2]): 10 fold
23 | B23 | 2200 | 
24 | B24 | 3000 | 
25 | B25 | 10000 | 
26 | B26 |  | Kd (human lysozyme): 2600 nM
27 | B27 |  | Kd (human lysozyme): 200 nM
28 | B28 |  | Kd (human lysozyme): > 73000 nM
